Biological target: canine parvovirus (CPV) capsid (Canine parvovirus type 2, strain CPV-d …, UniProt P17455)
Test: cryo-EM structure

Chain of canine parvovirus (CPV) capsid (P17455 whole entry, looked up): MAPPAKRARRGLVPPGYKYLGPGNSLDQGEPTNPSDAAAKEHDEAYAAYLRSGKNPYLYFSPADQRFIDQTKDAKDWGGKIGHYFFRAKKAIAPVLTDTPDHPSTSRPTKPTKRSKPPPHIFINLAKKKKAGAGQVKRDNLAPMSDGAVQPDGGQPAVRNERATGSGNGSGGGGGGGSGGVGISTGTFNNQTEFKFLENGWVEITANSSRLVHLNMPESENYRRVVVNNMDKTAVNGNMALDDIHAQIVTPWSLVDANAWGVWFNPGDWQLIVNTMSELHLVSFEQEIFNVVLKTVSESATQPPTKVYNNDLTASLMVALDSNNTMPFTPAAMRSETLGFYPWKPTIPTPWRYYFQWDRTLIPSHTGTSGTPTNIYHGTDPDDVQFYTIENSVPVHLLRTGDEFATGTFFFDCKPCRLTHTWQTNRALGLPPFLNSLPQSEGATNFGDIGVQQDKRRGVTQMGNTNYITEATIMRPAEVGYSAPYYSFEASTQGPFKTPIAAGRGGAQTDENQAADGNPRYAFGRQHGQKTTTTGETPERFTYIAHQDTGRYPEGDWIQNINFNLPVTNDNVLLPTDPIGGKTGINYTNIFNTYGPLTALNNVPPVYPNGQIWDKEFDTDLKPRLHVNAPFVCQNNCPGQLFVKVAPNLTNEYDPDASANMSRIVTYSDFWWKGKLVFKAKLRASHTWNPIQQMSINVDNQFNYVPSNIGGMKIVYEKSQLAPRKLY

B1: Fab of MAb14 (Fab 14) (Fab, V domains shown)
VH: AVHLQGTELVKPGASAGVKLSCKASGYTFTNYDMNWVRQRPEQGLEWIGWIFPGDGSTRYNEKFKGKATLTTDKSSSTAYQLNRLTSEDSAVYFCARRGSHGSYSFAYWGQGTLVTVSG
VL: DIVMTQSHKFMSTSVGDRVSITCKASQDVNTALAWYQQIPGQSPKLLIYSASNRYTGVPDRFTASGSGTDFTFTISSVQAEDLALYYCQQHYTTPWTFGGGTKLEIK
- stoichiometry N: ~60 Fab 14 molecules per capsid
